We go through one molecule from patent publication US20240377400A1, “METHODS FOR TREATING A SUBTYPE OF COLORECTAL CANCER” (Cornell University, priority 2021, published 2024).

The test system of this assay is MTO-sgC tumors. The assay can be described thus: Subcutaneous MTO-sgC control tumors in syngeneic C57BL/6J mice treated with PEGPH20. It counts as in vivo, mouse. The conditions noted are these: PEGPH20 0.0375 mg/Kg twice a week, 3 weeks. How it is done:
FIGS. 8F-8J illustrate subcutaneous injection of sgPrkci/Prkcz and sgC MTOs in WT mice. Mice were treated twice a week with Veh or PEGPH20 0.0375 mg/kg for 3 weeks (MTOs: sgC n=10, sgC PEGPH20-treated n=10, sgPrkci/Prkcz n=10, and sgPrkci/Prkcz PEGPH20-treated n=8). Experimental design (F); Immunohistochemistry (IHC) for HA, Masson's trichrome, and αSMA (G) staining quantification (H); tumor volume (I) and tumor weight (J). Scale bars, 100 μm.
For colonoscopy-guided orthotopic injection in the colon submucosa using mouse tumor organoids (MTOs), a 10 μl organoid suspension of equivalent to 40-50 MTOs admixed with 10% Matrigel (Corning) was directly injected into the colonic submucosa of 7 weeks old C57BL/6 mice. 4 weeks after implantation, tumors were collected and analyzed histologically. Orthotopic tumor sizes were measured by caliper after mice were sacrificed. For xenografts using MTOs, a 100 μl cell suspension of equivalent to 0.5×10^6 cells of sgPrkci/Prkcz or sgC MTOs admixed with 30% Matrigel (Corning) was directly injected subcutaneously into the right flank of 7 weeks old C57BL/6 mice. […] Tumors were measured twice a week. Mice were euthanized three weeks after treatment and tumors were analyzed histologically. […]

B1: PEGPH20: a PEGylated version of human recombinant PH20 hyaluronidase; clinical-grade pegylated hyaluronidase (Halozyme Therapeutics) (protein, UniProt P38567 36-490, looked up)
Hyaluronidase PH-20: LNFRAPPVIPNVPFLWAWNAPSEFCLGKFDEPLDMSLFSFIGSPRINATGQGVTIFYVDRLGYYPYIDSITGVTVNGGIPQKISLQDHLDKAKKDITFYMPVDNLGMAVIDWEEWRPTWARNWKPKDVYKNRSIELVQQQNVQLSLTEATEKAKQEFEKAGKDFLVETIKLGKLLRPNHLWGYYLFPDCYNHHYKKPGYNGSCFNVEIKRNDDLSWLWNESTALYPSIYLNTQQSPVAATLYVRNRVREAIRVSKIPDAKSPLPVFAYTRIVFTDQVLKFLSQDELVYTFGETVALGASGIVIWGTLSIMRSMKSCLLLDNYMETILNPYIINVTLAAKMCSQVLCQEQGVCIRKNWNSSDYLHLNPDNFAIQLEKGGKFTVRGKPTLEDLEQFSEKFYCSCYSTLSCKEKADVKDTDAVDVCIADGVCIDAFLKPPMETEEPQIFYNASPSTLS
modifications: PEGylated
For the molecule B1, the “growth properties of MTO-sgC tumors” value is “did not affect”.
